Target: T1, Flag-Zc3h10 (mouse, UniProt Q8R205 1-435)
T1 sequence (looked up): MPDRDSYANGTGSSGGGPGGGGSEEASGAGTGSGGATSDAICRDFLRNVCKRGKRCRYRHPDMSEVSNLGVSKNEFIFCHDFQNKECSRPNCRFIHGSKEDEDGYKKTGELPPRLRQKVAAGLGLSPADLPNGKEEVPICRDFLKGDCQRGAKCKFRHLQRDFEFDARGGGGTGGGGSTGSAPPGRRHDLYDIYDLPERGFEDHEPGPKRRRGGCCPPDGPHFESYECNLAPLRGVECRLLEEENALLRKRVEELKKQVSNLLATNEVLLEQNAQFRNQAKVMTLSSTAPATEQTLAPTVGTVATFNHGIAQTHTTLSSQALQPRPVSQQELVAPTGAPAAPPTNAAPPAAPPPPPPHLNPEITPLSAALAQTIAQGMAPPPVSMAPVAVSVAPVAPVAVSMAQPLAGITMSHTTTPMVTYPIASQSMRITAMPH
Test: cell-based or functional assay

B1: HA-Dot1l (enzyme, mouse, UniProt Q6XZL8 1-1540, looked up)
chain: MGEKLELRLKSPVGAEPAVYPWPLPVYDKHHDAAHEIIETIRWVCEEIPDLKLAMENYVLIDYDTKSFESMQRLCDKYNRAIDSIHQLWKGTTQPMKLNTRPSNGLLRHILQQVYNHSVTDPEKLNNYEPFSPEVYGETSFDLVAQMIDEIKMTEDDLFVDLGSGVGQVVLQVAAATNCKHHYGVEKADIPAKYAETMDREFRKWMKWYGKKHAEYTLERGDFLSEEWRERIANTSVIFVNNFAFGPEVDHQLKERFANMKEGGRIVSSKPFAPLNFRINSRNLSDIGTIMRVVELSPLKGSVSWTGKPVSYYLHTIDRTILENYFSSLKNPKLREEQEAARRRQQRENKSNATTPTKVPESKAAATEAPADSGAEEEKSGVATVKKPSPSKARKKKLNKKGRKMAGRKRGRPKKMSAASAERKSKKSQSTLDLLHSPPPAPPSASPQDAYRAPHSPFYQLPPSTQLHSPNPLLVAPTPPALQKLLESFRIQYLQFLAYTKTPQYKANLQQLLDQEKEKNTQLLGTAQQLFGHCQAQKEEIRRLFQQKLDELGVKALTYNDLIQAQKEISAHNQQLREQSEQLEKDNSELRSQSLRLLRARCEELRLDWSTLSLENLRKEKQALRSQISEKQRHCLELQISIVELEKTQRQQELLQLKSCVPPDDALSLHLRGKGALGRELEADAGRLRLELDCAKISLPHLSSMSPELSMNGHAASYELCNAASRPSSKQNTPQYLASPLDQEVVPCTPSHSGRPRLEKLSGLALPDYTRLSPAKIVLRRHLSQDHTGASKAATSEPHPRPEHPKESSLPYQSPGLSNSMKLSPQDPPLASPATSPLTSEKGSEKGVKERAYSSHGETITSLPVSIPLSTVQPNKLPVSIPLASVVLPSRAERARSTPSPVPQPRDSSATLEKQTGASAHGAGGAGAGSRSLAVAPTGFYAGSVAISGALASSPAPLASGMESAVFDESSGPSSLFATMGSRSTPPQHPPLLSQSRNSGPASPAHQLTASPRLSVTTQGSLPDTSKGELPSDPAFSDPESEAKRRIVFSISVGASSKQSPSTRHSPLTSGTRGDCVQSHGQDSRKRSRRKRASAGTPSLSTGVSPKRRALPTVAGLFTQSSGSPLNLNSMVSNINQPLEITAISSPESSLKSSPTPYQDHDQPPVLRKERPLGLTNGAHYSPLTSDEEPGSEDEPSSARIERKIATISLESKSPPKTLENGGGLVGRKSAPSSEPINSSKWKSTFSPISDLGLAKAVDSPLQAGSALSHSPLFSFRPSLEEPAAEAKLPTHPRKSFAGSLGAAEGPSPGTNPPNGLAFSGGLAADLGLHSFNDGASLSHKGPDVTGLSASLSFPSQRGKDSTTEANPFLSRRQPEGLGGLKGEGNANKESGESLPLCGPSDKASLPHGSRASKGRDRELDFKGGHNLFISAAAVPPGGLLGGPGLVTVASSAGSATPTAQAPRPFLSTFAPGPQFTLGPMSLQANLGSVAGSSVLQSLFSTVPAAAGLVHVSSTATRLTNSHTMGSFSSGVAGGTVGGN
Ucp1 promoter activity, luciferase reporter (−5.5 kb Ucp1-Luc) in HEK293 cells cotransfected with Zc3h10 and Dot1l, against empty vector control (Zc3h10 alone over 3-fold; Dot1l alone no activation): 11 fold

— PMC7661038, “Dot1l interacts with Zc3h10 to activate Ucp1 and other thermogenic genes” (eLife, 2020)
